Data on one substance can be found in paper PMC4530019.

The target in this assay is cardiac ryanodine receptor (RyR2) (rat (endogenous in ventricular myocytes)) (UniProt B0LPN4).
Sequence of UniProt B0LPN4 (B0LPN4 whole entry): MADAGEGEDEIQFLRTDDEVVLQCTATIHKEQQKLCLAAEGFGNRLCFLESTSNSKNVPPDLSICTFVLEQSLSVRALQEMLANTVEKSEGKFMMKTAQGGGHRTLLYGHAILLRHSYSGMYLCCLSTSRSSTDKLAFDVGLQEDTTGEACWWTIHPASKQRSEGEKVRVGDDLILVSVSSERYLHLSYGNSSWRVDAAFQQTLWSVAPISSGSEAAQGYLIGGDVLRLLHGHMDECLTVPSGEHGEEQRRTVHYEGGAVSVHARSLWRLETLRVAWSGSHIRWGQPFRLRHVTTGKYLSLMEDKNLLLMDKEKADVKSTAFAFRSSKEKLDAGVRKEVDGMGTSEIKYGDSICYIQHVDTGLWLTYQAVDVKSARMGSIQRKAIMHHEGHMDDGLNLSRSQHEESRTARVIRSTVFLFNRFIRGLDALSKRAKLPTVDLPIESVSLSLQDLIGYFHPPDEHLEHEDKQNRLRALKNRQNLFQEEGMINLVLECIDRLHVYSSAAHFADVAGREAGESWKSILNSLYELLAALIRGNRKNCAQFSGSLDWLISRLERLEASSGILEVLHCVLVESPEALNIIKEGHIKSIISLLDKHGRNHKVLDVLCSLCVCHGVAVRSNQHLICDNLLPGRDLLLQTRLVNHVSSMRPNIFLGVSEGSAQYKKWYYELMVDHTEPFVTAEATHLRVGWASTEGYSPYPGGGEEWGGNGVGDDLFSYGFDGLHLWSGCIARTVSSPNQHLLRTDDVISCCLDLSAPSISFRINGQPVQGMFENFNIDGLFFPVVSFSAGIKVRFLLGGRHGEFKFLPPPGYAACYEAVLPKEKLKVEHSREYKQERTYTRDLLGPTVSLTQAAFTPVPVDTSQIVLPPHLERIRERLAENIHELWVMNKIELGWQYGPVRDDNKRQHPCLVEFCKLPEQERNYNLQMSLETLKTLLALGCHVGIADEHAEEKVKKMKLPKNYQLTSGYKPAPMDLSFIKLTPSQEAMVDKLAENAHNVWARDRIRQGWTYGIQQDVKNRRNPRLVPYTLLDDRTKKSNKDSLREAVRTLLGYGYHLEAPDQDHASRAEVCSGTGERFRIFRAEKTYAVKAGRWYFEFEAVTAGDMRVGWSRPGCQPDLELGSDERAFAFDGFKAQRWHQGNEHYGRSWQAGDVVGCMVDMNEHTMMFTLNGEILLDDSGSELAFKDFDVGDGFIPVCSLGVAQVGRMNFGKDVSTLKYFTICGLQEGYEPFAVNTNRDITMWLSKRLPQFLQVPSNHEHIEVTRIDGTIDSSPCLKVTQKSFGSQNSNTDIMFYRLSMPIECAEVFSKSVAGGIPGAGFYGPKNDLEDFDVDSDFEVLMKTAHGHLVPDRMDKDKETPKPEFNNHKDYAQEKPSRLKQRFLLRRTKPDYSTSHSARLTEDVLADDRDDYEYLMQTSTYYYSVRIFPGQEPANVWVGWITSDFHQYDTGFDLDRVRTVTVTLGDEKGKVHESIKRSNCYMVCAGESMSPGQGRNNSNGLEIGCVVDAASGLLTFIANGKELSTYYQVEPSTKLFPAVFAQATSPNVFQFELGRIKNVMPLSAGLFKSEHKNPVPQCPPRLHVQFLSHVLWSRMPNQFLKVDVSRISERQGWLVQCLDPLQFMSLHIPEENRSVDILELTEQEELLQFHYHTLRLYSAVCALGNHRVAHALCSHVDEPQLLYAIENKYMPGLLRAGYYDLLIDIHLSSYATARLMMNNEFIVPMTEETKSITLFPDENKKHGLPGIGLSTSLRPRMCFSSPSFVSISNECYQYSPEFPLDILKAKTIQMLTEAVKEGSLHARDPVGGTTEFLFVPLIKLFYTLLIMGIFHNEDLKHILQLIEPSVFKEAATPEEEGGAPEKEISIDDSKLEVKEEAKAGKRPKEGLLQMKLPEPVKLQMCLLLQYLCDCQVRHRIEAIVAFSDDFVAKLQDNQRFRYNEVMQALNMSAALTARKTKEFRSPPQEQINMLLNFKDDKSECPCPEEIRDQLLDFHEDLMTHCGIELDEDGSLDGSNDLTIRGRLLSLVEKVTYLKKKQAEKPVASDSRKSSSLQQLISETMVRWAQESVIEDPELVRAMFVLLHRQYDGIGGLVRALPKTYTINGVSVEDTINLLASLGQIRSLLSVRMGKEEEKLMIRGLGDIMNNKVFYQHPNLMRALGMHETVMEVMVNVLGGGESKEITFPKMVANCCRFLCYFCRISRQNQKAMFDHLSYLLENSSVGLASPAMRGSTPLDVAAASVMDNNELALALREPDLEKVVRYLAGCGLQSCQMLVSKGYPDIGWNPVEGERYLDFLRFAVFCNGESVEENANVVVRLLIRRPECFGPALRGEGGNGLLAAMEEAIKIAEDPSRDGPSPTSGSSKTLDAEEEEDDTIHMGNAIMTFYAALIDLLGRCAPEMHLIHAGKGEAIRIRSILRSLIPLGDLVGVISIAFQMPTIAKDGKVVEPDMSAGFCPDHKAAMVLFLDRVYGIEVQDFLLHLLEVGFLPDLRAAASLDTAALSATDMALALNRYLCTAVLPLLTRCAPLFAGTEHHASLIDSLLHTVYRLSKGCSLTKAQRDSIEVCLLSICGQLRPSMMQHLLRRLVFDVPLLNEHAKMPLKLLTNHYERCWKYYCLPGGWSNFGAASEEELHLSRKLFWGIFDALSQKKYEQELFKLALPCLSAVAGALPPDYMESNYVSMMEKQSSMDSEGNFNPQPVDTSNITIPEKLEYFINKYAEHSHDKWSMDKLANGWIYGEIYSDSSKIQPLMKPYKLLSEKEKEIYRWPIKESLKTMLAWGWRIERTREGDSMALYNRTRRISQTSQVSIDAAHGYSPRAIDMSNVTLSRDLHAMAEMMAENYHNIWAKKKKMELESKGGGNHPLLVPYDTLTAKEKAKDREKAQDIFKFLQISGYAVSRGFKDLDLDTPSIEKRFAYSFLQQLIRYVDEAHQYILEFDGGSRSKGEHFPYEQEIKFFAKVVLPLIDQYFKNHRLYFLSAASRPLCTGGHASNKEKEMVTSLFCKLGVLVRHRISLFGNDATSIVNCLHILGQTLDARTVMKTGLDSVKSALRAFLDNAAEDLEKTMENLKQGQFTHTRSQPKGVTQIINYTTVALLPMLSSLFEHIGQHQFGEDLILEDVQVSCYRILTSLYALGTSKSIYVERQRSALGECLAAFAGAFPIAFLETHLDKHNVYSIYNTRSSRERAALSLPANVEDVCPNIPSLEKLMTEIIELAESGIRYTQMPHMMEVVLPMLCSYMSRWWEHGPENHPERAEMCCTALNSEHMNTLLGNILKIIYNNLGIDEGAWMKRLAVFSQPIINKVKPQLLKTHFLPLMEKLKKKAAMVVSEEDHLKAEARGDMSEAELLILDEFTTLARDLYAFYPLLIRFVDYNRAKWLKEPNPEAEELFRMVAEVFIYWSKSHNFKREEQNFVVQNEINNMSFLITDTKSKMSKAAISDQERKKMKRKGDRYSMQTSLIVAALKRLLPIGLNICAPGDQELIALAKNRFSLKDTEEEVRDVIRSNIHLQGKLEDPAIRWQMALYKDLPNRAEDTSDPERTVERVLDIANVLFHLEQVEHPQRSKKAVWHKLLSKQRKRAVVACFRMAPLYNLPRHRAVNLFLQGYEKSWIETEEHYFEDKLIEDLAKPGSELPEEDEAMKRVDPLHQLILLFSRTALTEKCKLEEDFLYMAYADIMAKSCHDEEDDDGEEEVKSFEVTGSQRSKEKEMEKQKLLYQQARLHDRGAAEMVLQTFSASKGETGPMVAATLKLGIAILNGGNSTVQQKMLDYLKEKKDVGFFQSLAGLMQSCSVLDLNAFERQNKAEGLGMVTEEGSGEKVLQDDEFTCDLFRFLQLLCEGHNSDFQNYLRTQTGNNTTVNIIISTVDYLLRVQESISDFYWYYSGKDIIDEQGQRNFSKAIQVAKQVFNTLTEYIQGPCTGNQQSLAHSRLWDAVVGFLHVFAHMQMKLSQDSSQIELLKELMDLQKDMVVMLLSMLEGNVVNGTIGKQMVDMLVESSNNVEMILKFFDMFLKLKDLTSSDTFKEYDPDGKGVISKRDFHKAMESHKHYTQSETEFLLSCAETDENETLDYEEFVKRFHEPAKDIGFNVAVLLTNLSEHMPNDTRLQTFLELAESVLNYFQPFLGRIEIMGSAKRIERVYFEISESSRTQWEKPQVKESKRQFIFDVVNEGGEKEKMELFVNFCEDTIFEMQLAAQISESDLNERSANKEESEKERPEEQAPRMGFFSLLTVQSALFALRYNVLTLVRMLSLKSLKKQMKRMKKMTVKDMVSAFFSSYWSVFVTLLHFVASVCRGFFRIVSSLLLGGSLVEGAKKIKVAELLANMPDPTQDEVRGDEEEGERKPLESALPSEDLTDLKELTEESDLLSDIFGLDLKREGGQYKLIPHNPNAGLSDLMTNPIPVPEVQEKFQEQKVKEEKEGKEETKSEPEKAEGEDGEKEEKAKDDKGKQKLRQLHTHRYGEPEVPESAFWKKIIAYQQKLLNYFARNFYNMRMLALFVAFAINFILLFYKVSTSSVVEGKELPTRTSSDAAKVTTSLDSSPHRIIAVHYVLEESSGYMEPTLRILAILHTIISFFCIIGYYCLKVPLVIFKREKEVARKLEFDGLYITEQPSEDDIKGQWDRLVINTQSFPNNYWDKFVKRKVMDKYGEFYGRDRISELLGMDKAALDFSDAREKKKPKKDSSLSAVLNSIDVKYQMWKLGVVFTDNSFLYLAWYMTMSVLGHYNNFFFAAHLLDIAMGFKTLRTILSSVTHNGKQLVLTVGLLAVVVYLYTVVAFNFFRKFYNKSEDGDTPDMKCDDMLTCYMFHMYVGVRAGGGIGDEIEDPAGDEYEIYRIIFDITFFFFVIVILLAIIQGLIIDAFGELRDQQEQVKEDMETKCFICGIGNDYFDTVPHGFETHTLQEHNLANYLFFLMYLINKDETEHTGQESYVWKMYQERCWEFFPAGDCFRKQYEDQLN

“F-CaM pre-incubated in H2O2 (F-CaM^Ox) (from UniProt P0DP23 1-149) (natural protein)” displayed a percent reduction of specific Z-line binding against F-CaM that was not oxidized of 20%.
